B1: AvIDH (Azotobacter vinelandii) (protein)
chain: STPKIIYTLTDEAPALATYSLLPIIKAFTGSSGIAVETRDISLAGRLIATFPEYLTDTQKISDDLAELGKLATTPDANIIKLPNISASVPQLKAAIKELQQQGYKLPDYPEEPKTDTEKDVKARYDKIKGSAVNPVLREGNSDRRAPLSVKNYARKHPHKMGAWSADSKSHVAHMDNGDFYGSEKAALIGAPGSVKIELIAKDGSSTVLKAKTSVQAGEIIDSSVMSKNALRNFIAAEIEDAKKQGVLLSVHLKATMMKVSDPIMFGQIVSEFYKDALTKHAEVLKQIGFDVNNGIGDLYARIKTLPEAKQKEIEADIQAVYAQRPQLAMVNSDKGITNLHVPSDVIVDASMPAMIRDSGKMWGPDGKLHDTKAVIPDRCYAGVYQVVIEDCKQHGAFDPTTMGSVPNVGLMAQKAEEYGSHDKTFQIPADGVVRVTDESGKLLLEQSVEAGDIWRMCQAKDAPIQDWVKLAVNRARATNTPAVFWLDPARAHDAQVIAKVERYLKDYDTSGLDIRILSPVEATRFSLARIREGKDTISVTGNVLRDYLTDLFPIMELGTSAKMLSIVPLMSGGGLFETGAGGSAPKHVQQFLEEGYLRWDSLGEFLALAASLEHLGNAYKNPKALVLASTLDQATGKILDNNKSPARKVGEIDNRGSHFYLALYWAQALAAQTEDKELQAQFTGIAKALTDNETKIVGELAAAQGKPVDIAGYYHPNTDLTSKAIRPSATFNAALAPLA
notes: full-length gene, C-terminal 6xHis (kept), pET24a, E. coli BL21(DE3), Ni-NTA
B2: CgIDH (Corynebacterium glutamicum ATCC 13032) (protein)
chain: MAKIIWTRTDEAPLLATYSLKPVVEAFAATAGIEVETRDISLAGRILAQFPERLTEDQKVGNALAELGELAKTPEANIIKLPNISASVPQLKAAIKELQDQGYDIPELPDNATTDEEKDILARYNAVKGSAVNPVLREGNSDRRAPIAVKNFVKKFPHRMGEWSADSKTNVATMDANDFRHNEKSIILDAADEVQIKHIAADGTETILKDSLKLLEGEVLDGTVLSAKALDAFLLEQVARAKAEGILFSAHLKATMMKVSDPIIFGHVVRAYFADVFAQYGEQLLAAGLNGENGLAAILSGLESLDNGEEIKAAFEKGLEDGPDLAMVNSARGITNLHVPSDVIVDASMPAMIRTSGHMWNKDDQEQDTLAIIPDSSYAGVYQTVIEDCRKNGAFDPTTMGTVPNVGLMAQKAEEYGSHDKTFRIEADGVVQVVSSNGDVLIEHDVEANDIWRACQVKDAPIQDWVKLAVTRSRLSGMPAVFWLDPERAHDRNLASLVEKYLADHDTEGLDIQILSPVEATQLSIDRIRRGEDTISVTGNVLRDYNTDLFPILELGTSAKMLSVVPLMAGGGLFETGAGGSAPKHVQQVQEENHLRWDSLGEFLALAESFRHELNNNGNTKAGVLADALDKATEKLLNEEKSPSRKVGEIDNRGSHFWLTKFWADELAAQTEDADLAATFAPVAEALNTGAADIDAALLAVQGGATDLGGYYSPNEEKLTNIMRPVAQFNEIVDALKK
notes: full-length gene, C-terminal 6xHis (kept), pET24a, E. coli BL21(DE3), Ni-NTA; about 80 kDa by SEC, monomer

Assays:
Assay in all cases: NADPH fluorescence, initial rates, Michaelis-Menten fit
[1] = substrate: O=C(O)CC(C(=O)O)C(O)C(=O)O; assay type: biochemical, Azotobacter vinelandii; conditions: 1 mM NADP+, 1 mM MnCl2, 20 mM MOPS pH 7.4, 100 mM NaCl, 30 °C, DL-isocitrate 0-100 μM
Text: (§1) NADPH fluorescence, initial rates, Michaelis-Menten fit on AvIDH

[2] = substrate: NC(=O)c1ccc[n+]([C@@H]2O[C@H](COP(=O)(O)OP(=O)(O)OC[C@H]3O[C@@H](n4cnc5c(N)ncnc54)[C@H](OP(=O)(O)O)[C@@H]3O)[C@@H](O)[C@H]2O)c1; assay type: biochemical, Azotobacter vinelandii; conditions: 1 mM isocitrate, 1 mM MnCl2, 20 mM MOPS pH 7.4, 100 mM NaCl, 30 °C, varied: cofactor
Text: as §1

[3] = substrate: O=C(O)CC(C(=O)O)C(O)C(=O)O; assay type: biochemical, Corynebacterium glutamicum; conditions: 1 mM NADP+, 1 mM MnCl2, 20 mM MOPS pH 7.4, 100 mM NaCl, 30 °C, DL-isocitrate 0-100 μM
Text: (§2) NADPH fluorescence, initial rates, Michaelis-Menten fit on CgIDH

[4] = substrate: NC(=O)c1ccc[n+]([C@@H]2O[C@H](COP(=O)(O)OP(=O)(O)OC[C@H]3O[C@@H](n4cnc5c(N)ncnc54)[C@H](OP(=O)(O)O)[C@@H]3O)[C@@H](O)[C@H]2O)c1; assay type: biochemical, Corynebacterium glutamicum; conditions: 1 mM isocitrate, 1 mM MnCl2, 20 mM MOPS pH 7.4, 100 mM NaCl, 30 °C, varied: cofactor
Text: as §2

Row | Protein | Km [1] | kcat [1] | kcat/Km [1] | Km [2] | kcat [2] | kcat/Km [2] | Km [3] | kcat [3] | kcat/Km [3] | Km [4] | kcat [4] | kcat/Km [4]
1 | B1 | 13.9 µM | 44 s⁻¹ | 3.2e+06 M⁻¹ s⁻¹ | 5.9 µM | 38.7 s⁻¹ | 6.6e+06 M⁻¹ s⁻¹ | – | – | – | – | – | –
2 | B2 | – | – | – | – | – | – | 15.0 µM | 49.4 s⁻¹ | 3.3e+06 M⁻¹ s⁻¹ | 10.3 µM | 43.7 s⁻¹ | 4.3e+06 M⁻¹ s⁻¹
